# Test results: patent US20090175886A1 (Bristol-Myers Squibb, published 2009)
# Several values for one entry are separate records, joined by “and”; a condition that tells them apart may be missing. Equal entries are not always repeated.
# B1: 5F11 LEX^Opt mAb (glyco-optimized 5F11 produced in Lemna minor with FucT/XylT RNAi, vector MDXA04) (antibody, V domains shown)
# VH: QVQLQQWGAGLLKPSETLSLTCAVYGGSFSAYYWSWIRQPPGKGLEWIGDINHGGGTNYNPSLKSRVTISVDTSKNQFSLKLNSVTAADTAVYYCASLTAYWGQGSLVTVSS
# VL: DIQMTQSPTSLSASVGDRVTITCRASQGISSWLTWYQQKPEKAPKSLIYAASSLQSGVPSRFSGSGSGTDFTLTISSLQPEDFATYYCQQYDSYPITFGQGTRLEIK
# notes: N-glycans at Asn 297 are 95.8% GnGn (G0), with no fucosyl or xylosyl; also called MDXA04 derived mAb; glyco-optimized anti-CD30 mAb
# B2: defucosylated 5F11 human anti-CD30 monoclonal antibody produced in Ms704 (FUT8-/-) cells (antibody, V domains shown)
# VH: B1 VH
# VL: B1 VL
# notes: also called defuc-5F11; defucosylated anti-CD30 antibody
# What was measured:
# [1] = target: cynomolgus CD30 on PHA, Con A and rIL-2 activated cynomolgus peripheral blood mononuclear cells (cynomolgus monkey); assay: Scatchard analysis (Bmax), 125I-labelled antibody on activated cynomolgus peripheral blood mononuclear cells
# [2] = target: human CD30 expressed on cells (L540, L428, L1236, Karpas cell lines; activated human peripheral blood cells) (human) (UniProt P28908); assay: cell-based or functional assay
# [3] = target: human CD30 expressed on cells (L540, L428, L1236, Karpas cell lines; activated human peripheral blood cells) (human) (UniProt P28908); assay: Scatchard analysis (Bmax), 125I-labelled antibody on L540 cells
# [4] = target: human CD30 expressed on cells (L540, L428, L1236, Karpas cell lines; activated human peripheral blood cells) (human) (UniProt P28908); assay: flow cytometry on CD30-expressing L540 cells, FITC anti-human secondary antibody
# [5] = target: human CD30 expressed on cells (L540, L428, L1236, Karpas cell lines; activated human peripheral blood cells) (human) (UniProt P28908); assay: Scatchard analysis, 125I-labelled antibody on L540 cells
# [6] = target: human CD30 expressed on cells (L540, L428, L1236, Karpas cell lines; activated human peripheral blood cells) (human) (UniProt P28908); assay: Scatchard analysis, 125I-labelled antibody on PHA/Con A/IL-2 activated human peripheral blood cells
# [7] = target: human CD30 expressed on cells (L540, L428, L1236, Karpas cell lines; activated human peripheral blood cells) (human) (UniProt P28908); assay: Scatchard analysis (Bmax), 125I-labelled antibody on activated human peripheral blood cells
# [8] = target: human FcRgammaIIIa, Phe^158 allotype (human) (UniProt P08637); assay: SPR (Biacore): mAb captured on a surface coated with recombinant human CD30, FcRγIIIa Phe158 (CD16-Phe) flowed over, equilibrium signal fitted to a one-site model; Binding Constants (nM)
# Chain of human FcRgammaIIIa, Phe^158 allotype (human) (P08637 17-208 limits assumed): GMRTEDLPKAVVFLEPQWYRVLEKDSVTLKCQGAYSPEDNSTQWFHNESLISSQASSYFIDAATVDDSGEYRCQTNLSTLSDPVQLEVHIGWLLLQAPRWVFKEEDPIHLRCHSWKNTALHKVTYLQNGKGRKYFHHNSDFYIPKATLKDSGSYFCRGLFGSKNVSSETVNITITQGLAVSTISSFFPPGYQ
# [9] = target: cynomolgus CD30 on PHA, Con A and rIL-2 activated cynomolgus peripheral blood mononuclear cells (cynomolgus monkey); assay: Scatchard analysis, 125I-labelled antibody on PHA/Con A/IL-2 activated cynomolgus peripheral blood mononuclear cells
# [10] = target: human FcRgammaIIIa, Val^158 allotype (human) (UniProt P08637); assay: SPR (Biacore): mAb captured on a surface coated with recombinant human CD30, FcRγIIIa Val158 (CD16-Val) flowed over, equilibrium signal fitted to a one-site model; Binding Constants (nM)
# Chain of human FcRgammaIIIa, Val^158 allotype (human) (P08637 17-208 F176V limits assumed): as the sequence (P08637 17-208 limits assumed) above, with F160V counted along it
# [11] = target: T1, human CD30 expressed on cells (L540, L428, L1236, Karpas cell lines; activated human peripheral blood cells) (human, UniProt P28908 19-595); assay: flow cytometry on CD30-expressing L540 cells, FITC anti-human secondary antibody
# T1 construct: whole, on cells; also called CD30 antigen
# T1 sequence (looked up): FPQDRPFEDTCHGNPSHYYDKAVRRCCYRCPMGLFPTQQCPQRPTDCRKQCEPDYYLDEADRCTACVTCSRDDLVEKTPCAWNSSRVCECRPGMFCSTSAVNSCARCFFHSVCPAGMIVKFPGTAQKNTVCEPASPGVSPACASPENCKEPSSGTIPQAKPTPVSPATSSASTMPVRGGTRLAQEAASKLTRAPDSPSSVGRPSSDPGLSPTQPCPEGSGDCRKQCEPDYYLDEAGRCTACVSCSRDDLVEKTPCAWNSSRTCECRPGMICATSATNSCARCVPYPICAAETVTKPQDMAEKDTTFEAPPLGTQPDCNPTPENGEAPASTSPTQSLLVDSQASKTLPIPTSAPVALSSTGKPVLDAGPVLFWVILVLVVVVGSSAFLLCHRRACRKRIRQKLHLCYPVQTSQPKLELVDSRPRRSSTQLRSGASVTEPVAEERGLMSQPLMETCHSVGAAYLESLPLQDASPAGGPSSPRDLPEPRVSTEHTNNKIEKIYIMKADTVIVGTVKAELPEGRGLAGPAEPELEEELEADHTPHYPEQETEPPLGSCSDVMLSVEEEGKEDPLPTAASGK
# [12] = target: T1, human CD30 expressed on cells (L540, …); assay: cell-based or functional assay
# [13] = target: T2, cynomolgus CD30 on PHA, Con A and rIL-2 activated cynomolgus peripheral blood mononuclear cells (cynomolgus monkey, UniProt A0A2K5VW07 29-603); assay: Scatchard analysis, 125I-labelled antibody on PHA/Con A/IL-2 activated cynomolgus peripheral blood mononuclear cells
# T2 construct: whole, on cells
# T2 sequence: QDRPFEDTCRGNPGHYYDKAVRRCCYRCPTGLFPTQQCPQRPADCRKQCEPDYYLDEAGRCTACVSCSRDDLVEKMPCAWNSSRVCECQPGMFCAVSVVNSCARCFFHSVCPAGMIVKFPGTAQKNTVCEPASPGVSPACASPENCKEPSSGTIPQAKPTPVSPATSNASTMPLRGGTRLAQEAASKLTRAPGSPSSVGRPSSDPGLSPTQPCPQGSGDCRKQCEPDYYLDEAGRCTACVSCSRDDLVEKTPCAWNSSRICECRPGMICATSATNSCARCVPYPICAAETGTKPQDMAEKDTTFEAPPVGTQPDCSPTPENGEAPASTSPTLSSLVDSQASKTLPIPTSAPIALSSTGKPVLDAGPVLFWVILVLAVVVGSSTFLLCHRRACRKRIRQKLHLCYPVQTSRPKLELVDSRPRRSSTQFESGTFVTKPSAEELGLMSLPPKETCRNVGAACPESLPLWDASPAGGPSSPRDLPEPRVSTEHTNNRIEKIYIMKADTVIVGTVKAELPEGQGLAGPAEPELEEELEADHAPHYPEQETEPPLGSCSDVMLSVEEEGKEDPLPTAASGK
# Description: (§1) Human or cynomolgus peripheral blood cells were stimulated with 2 μg/ml PHA, 10 μg/ml Con A, and 50 U/ml rIL-2 and cultured in RPMI1640 media containing 10% fetal bovine serum (FBS) at 1×10⁶ cells/ml density for 3 days. On the day of the study, the cells were washed and adjusted to 2×10⁷ cells/ml in binding buffer (RPMI1640+10% FBS). […] The cells were placed on ice until the initiation of the experiment. Millipore glass fiber filter plates (MAFBNOB50) were coated with 1% nonfat dry milk in water and stored a 4° C. overnight. The plates were washed three times with 0.2 ml of binding buffer. Fifty microliters of buffer alone was added to the maximum binding wells (total binding). Twenty-five microliters of buffer alone was added to the control wells. Varying concentration of ¹²⁵I-anti-CD30 antibody was added to all wells in a volume of 25 μl. Varying concentrations of unlabeled antibody at 300-400 fold excess were added in a volume of 25 μl to control wells (non-specific binding) and 25 μl of CD30 positive L540 cells or stimulated human or cynomolgus peripheral blood cells in binding buffer were added to all wells. The plates were incubated for 2 hours at 200 RPM on a shaker at 4° C. At the completion of the incubation the Millipore plates were washed twice with 0.2 ml of cold wash buffer (RPMI1640, 10% FBS, 500 mM NaCl). The filters were removed and counted in a gamma counter. […]
# [14] = target: T1, human CD30 expressed on cells (L540, …); assay: Scatchard analysis, 125I-labelled antibody on L540 cells
# Description: as §1
# [15] = target: T1, human CD30 expressed on cells (L540, …); assay: Scatchard analysis, 125I-labelled antibody on PHA/Con A/IL-2 activated human peripheral blood cells
# Description: as §1
# [16] = target: T1, human CD30 expressed on cells (L540, …); assay: cell-based or functional assay; remark: listed apart in the source
molecule,measurement,setting,value
fucosylated 5F11 human anti-CD30 monoclonal antibody produced in CHO DG44 cells,Receptors Per Cell (ave) (receptors per cell),[1],72800
same,"% Lysis, 51Cr release ADCC, Karpas cells, 25 µg/ml antibody, target:effector 1:50",[2],19%
same,"% Lysis, 51Cr release ADCC, L428 cells, 25 µg/ml antibody, target:effector 1:50",[2],20%
same,"% Lysis, 51Cr release ADCC, L540 cells, 25 µg/ml antibody, target:effector 1:50",[2],42%
same,"% Lysis, 51Cr release ADCC, L1236 cells, 25 µg/ml antibody, target:effector 1:50",[2],4%
same,"% cell lysis, ADCC, Karpas 299 cells, cynomolgus effector cells, 10 µg/mL antibody",[2],7% and 10%
same,"EC50 of ADCC, Karpas cells",[2],0.25 µg/mL
same,"EC50 of ADCC, L428 cells",[2],0.1 µg/mL
same,"EC50 of ADCC, L540 cells",[2],0.042 µg/mL
same,"EC50 of ADCC, L540 cells, heterozygous FcRγIIIaPhe/Val^158 human effector cells",[2],0.0589 µg/mL
same,"EC50 of ADCC, L540 cells, homozygous FcγIIIa Phe/Phe^158 effector cells",[2],0.0337 µg/mL
same,"EC50 of ADCC, L1236 cells",[2],1.22 µg/mL
same,"maximal percent cell lysis, ADCC, L540 cells, heterozygous FcRγIIIaPhe/Val^158 human effector cells",[2],31%
same,"maximal percent cell lysis, ADCC, L540 cells, homozygous FcγIIIa Phe/Phe^158 effector cells",[2],15%
same,Receptors Per Cell (ave) (receptors per cell),[3],2.5e+06
same,EC50,[4],0.18 µg/mL
same,Kd,[5],1.37 nM
same,Kd,[6],1.08 nM
same,Receptors Per Cell (ave) (receptors per cell),[7],45700
same,Kd,[8],1090 nM
same,Kd,[9],0.47 nM
same,Kd,[10],177 nM
B1,EC50,[11],0.196 µg/mL
same,"EC50 of ADCC, L540 cells, FcγRIIIa Phe/Phe^158 effector cells",[12],0.0199 µg/mL
same,"EC50 of ADCC, L540 cells, FcγRIIIa Val/Phe^158 effector cells",[12],0.0131 µg/mL
same,fold increase in ADCC activity compared to 5F11 CHO,[12],20 fold
same,Kd,[8],41 nM
B2,Kd,[13],0.83 nM
same,Kd,[14],1.93 nM
same,Kd,[15],2.66 nM
same,"% Lysis ratio fucosyl-:fucosyl+, ADCC, Karpas cells",[16],2.63
same,"% Lysis ratio fucosyl-:fucosyl+, ADCC, L428 cells",[16],2.15
same,"% Lysis ratio fucosyl-:fucosyl+, ADCC, L540 cells",[16],1.61
same,"% Lysis ratio fucosyl-:fucosyl+, ADCC, L1236 cells",[16],3.25
same,"EC50 of ADCC, Karpas cells",[16],0.032 µg/mL
same,"EC50 of ADCC, L428 cells",[16],9 ng/mL
same,"EC50 of ADCC, L540 cells",[16],9 ng/mL
same,"EC50 of ADCC, L1236 cells",[16],0.045 µg/mL
same,"EC50 ratio fucosyl+:fucosyl-, ADCC, Karpas cells",[16],7.8
same,"EC50 ratio fucosyl+:fucosyl-, ADCC, L428 cells",[16],11.1
same,"EC50 ratio fucosyl+:fucosyl-, ADCC, L540 cells",[16],4.7
same,"EC50 ratio fucosyl+:fucosyl-, ADCC, L1236 cells",[16],27.1
